Data set [1] relates to HeLa Kyoto. The data set is described as follows: melting temperature (median over replicates), in situ; higher = more thermally stable.
Data set [2] concerns HeLa Kyoto. Description: solubility change mitosis vs G1/S (difference of NP-40 vs SDS log2 ratios) (log2 ratio difference); higher = more soluble in mitosis.
The test system of data set [3] is HeLa Kyoto. Description: solubility in G1/S (NP-40 vs SDS abundance) (log2 ratio); higher = more soluble. The note with it: cell cycle stage: G1/S.
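For melting temperature (median over replicates), in situ in this document: HeLa Kyoto cells synchronized by double thymidine or nocodazole block, proteins quantified by TMT10plex mass spectrometry, three independent biological replicates.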
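For solubility change mitosis vs G1/S (difference of NP-40 vs SDS log2 ratios) in this document: synchronized HeLa Kyoto cells (double thymidine block for G1/S, nocodazole release for mitosis), protein amounts in NP-40 versus SDS lysates quantified by mass spectrometry, three biological replicates.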
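For solubility in G1/S (NP-40 vs SDS abundance) in this document: HeLa Kyoto cells arrested at G1/S by double thymidine block, proteins quantified by TMT10plex mass spectrometry in mild NP-40 versus SDS extracts, three biological replicates.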

Chain of IRF2BPL (chain, as listed by the source): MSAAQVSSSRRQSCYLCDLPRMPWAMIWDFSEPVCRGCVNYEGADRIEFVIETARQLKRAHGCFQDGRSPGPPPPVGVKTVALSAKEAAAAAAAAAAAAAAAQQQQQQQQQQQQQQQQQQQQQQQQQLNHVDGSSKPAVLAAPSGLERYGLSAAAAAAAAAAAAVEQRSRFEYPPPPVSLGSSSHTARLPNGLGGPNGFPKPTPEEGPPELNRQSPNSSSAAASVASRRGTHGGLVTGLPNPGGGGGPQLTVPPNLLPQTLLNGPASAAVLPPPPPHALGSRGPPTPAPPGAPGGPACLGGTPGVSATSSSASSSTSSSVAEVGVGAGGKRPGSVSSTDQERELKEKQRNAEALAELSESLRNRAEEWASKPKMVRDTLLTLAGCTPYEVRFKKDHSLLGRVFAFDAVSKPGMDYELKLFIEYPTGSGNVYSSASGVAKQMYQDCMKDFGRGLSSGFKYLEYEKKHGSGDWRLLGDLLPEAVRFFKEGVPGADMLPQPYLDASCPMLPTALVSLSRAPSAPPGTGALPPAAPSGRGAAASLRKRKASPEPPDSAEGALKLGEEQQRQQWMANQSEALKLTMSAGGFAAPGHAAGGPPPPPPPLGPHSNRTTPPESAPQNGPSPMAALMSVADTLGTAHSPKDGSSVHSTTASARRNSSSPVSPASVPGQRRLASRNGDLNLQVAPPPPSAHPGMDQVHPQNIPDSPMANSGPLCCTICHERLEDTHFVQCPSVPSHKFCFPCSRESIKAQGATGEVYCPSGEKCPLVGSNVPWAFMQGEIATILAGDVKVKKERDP

As for “MAASRSTRVTRSTVGLNGLDESFCGRTLRNRSIAHPEEISSNSQVRSRSPKKRPEPVPIQKGNNNGRTTDLKQQSTRESWVSPRKRGLSSSEKDNIERQAIENCERRQTEPVSPVLKRIKRCLRSEAPNSSEEDSPIKSDKESVEQRSTVVDNDADFQGTKRACRCLILDDCEKREIKKVNVSEEGPLNSAVVEEITGYLAVNGVDDSDSAVINCDDCQPDGNTKQNSIGSYVLQEKSVAENGDTDTQTSMFLDSRKEDSYIDHKVPCTDSQVQVKLEDHKIVTACLPVEHVNQLTTEPATGPFSETQSSLRDSEEEVDVVGDSSASKEQCKENTNNELDTSLESMPASGEPEPSPVLDCVSAQMMSLSEPQEHRYTLRTSPRRAAPTRGSPTKNSSPYRENGQFEENNLSPNETNATVSDNVSQSPTNPGEISQNEKGICCDSQNNGSEGVSKPPSEARLNIGHLPSAKESASQHITEEEDDDPDVYYFESDHVALKHNKDYQRLLQTIAVLEAQRSQAVQDLESLGRHQREALKNPIGFVEKLQKKADIGLPYPQRVVQLPEIVWDQYTHSLGNFEREFKNRKRHTRRVKLVFDKVGLPARPKSPLDPKKDGESLSYSMLPLSDGPEGSSSRPQMIRGRLCDDTKPETFNQLWTVEEQKKLEQLLIKYPPEEVESRRWQKIADELGNRTAKQVASRVQKYFIKLTKAGIPVPGRTPNLYIYSKKSSTSRRQHPLNKHLFKPSTFMTSHEPPVYMDEDDDRSCFHSHMNTAVEDASDDESIPIMYRNLPEYKELLQFKKLKKQKLQQMQAESGFVQHVGFKCDNCGIEPIQGVRWHCQDCPPEMSLDFCDSCSDCLHETDIHKEDHQLEPIYRSETFLDRDYCVSQGTSYNYLDPNYFPANR [ZZZ3]”, the melting temperature turned out to be 48.9 °C in data set [1] (cell cycle stage: G1/S) and 49.1 °C in data set [1] (cell cycle stage: mitosis). Besides, the “solubility change mitosis (log2)” value in data set [2] was determined as 0.273. In addition, the “solubility in G1/S (log2)” value in data set [3] was -0.198.

For the substance RCOR3, the melting temperature turned out to be 49.1 °C in data set [1] (cell cycle stage: G1/S) and 50 °C in data set [1] (cell cycle stage: mitosis). For the same substance, in data set [2], the “solubility change mitosis (log2)” value amounted to 0.101. For the same substance, the “solubility in G1/S (log2)” value in data set [3] is 0.375.

On to IRF2BPL, for which the results for the melting temperature in data set [1] (cell cycle stage: G1/S) and in data set [1] (cell cycle stage: mitosis) were 50 °C and 50.9 °C, respectively. Besides, the “solubility change mitosis (log2)” value in data set [2] was -0.131. For the same substance, the “solubility in G1/S (log2)” value in data set [3] worked out at 0.519.

On to “MAEAGTGEPSPSVEGEHGTEYDTLPSDTVSLSDSDSDLSLPGGAEVEALSPMGLPGEEDSGPDEPPSPPSGLLPATVQPFHLRGMSSTFSQRSRDIFDCLEGAARRAPSSVAHTSMSDNGGFKRPLAPSGRSPVEGLGRAHRSPASPRVPPVPDYVAHPERWTKYSLEDVTEVSEQSNQATALAFLGSQSLAAPTDCVSSFNQDPSSCGEGRVIFTKPVRGVEARHERKRVLGKVGEPGRGGLGNPATDRGEGPVELAHLAGPGSPEAEEWGSHHGGLQEVEALSGSVHSGSVPGLPPVETVGFHGSRKRSRDHFRNKSSSPEDPGAEV [TSSC4]”, for which the melting temperature in data set [1] (cell cycle stage: G1/S) was determined as 51 °C; in data set [1] (cell cycle stage: mitosis), 50.5 °C. In addition, in data set [2], the “solubility change mitosis (log2)” value is 0.0166. Further, in data set [3], the “solubility in G1/S (log2)” value is 0.167.

In turn, “MAENREPRGAVEAELDPVEYTLRKRLPSRLPRRPNDIYVNMKTDFKAQLARCQKLLDGGARGQNACSEIYIHGLGLAINRAINIALQLQAGSFGSLQVAANTSTVELVDELEPETDTREPLTRIRNNSAIHIRVFRVTPK [POP7]” yielded a melting temperature in data set [1] (cell cycle stage: mitosis) of 54.9 °C. Moreover, in data set [2], the “solubility change mitosis (log2)” value is -0.0753. Also, in data set [3], the “solubility in G1/S (log2)” value was 0.19.

With BAZ2A, the melting temperature is 48.3 °C in data set [1] (cell cycle stage: G1/S) and 49.6 °C in data set [1] (cell cycle stage: mitosis). Also, in data set [2], the “solubility change mitosis (log2)” value worked out at 0.217. Moreover, in data set [3], the “solubility in G1/S (log2)” value was -0.382.

In data set [1] (cell cycle stage: G1/S), “MKDPSRSSTSPSIINEDVIINGHSHEDDNPFAEYMWMENEEEFNRQIEEELWEEEFIERCFQEMLEEEEEHEWFIPARDLPQTMDQIQDQFNDLVISDGSSLEDLVVKSNLNPNAKEFVPGVKYGNI [PAIP2]” gave a melting temperature of 50.5 °C. The “solubility change mitosis (log2)” value in data set [2] is -0.113. Further, the “solubility in G1/S (log2)” value in data set [3] was 0.197.

With “MSLVDLGKKLLEAARAGQDDEVRILMANGAPFTTDWLGTSPLHLAAQYGHYSTTEVLLRAGVSRDARTKVDRTPLHMAASEGHASIVEVLLKHGADVNAKDMLKMTALHWATEHNHQEVVELLIKYGADVHTQSKFCKTAFDISIDNGNEDLAEILQIAMQNQINTNPESPDTVTIHAATPQFIIGPGGVVNLTGLVSSENSSKATDETGVSAVQFGNSSTSVLATLAALAEASAPLSNSSETPVVATEEVVTAESVDGAIQQVVSSGGQQVITIVTDGIQLGNLHSIPTSGIGQPIIVTMPDGQQVLTVPATDIAEETVISEEPPAKRQCIEIIENRVESAEIEEREALQKQLDEANREAQKYRQQLLKKEQEAEAYRQKLEAMTRLQTNKEAV [GABPB1]”, the melting temperature was found to be 46.9 °C in data set [1] (cell cycle stage: G1/S) and 49.7 °C in data set [1] (cell cycle stage: mitosis). Besides, the “solubility change mitosis (log2)” value in data set [2] is -0.139. Besides, the “solubility in G1/S (log2)” value in data set [3] was found to be 0.111.

The values above are taken from the supplement of paper PMC5998384.
